Experiment [1] addresses recombinant Plasmodium falciparum circumsporozoite protein (CSP) (Plasmodium falciparum, UniProt P19597 21-375). The experiment in a line: cell-based or functional assay.
Target sequence in this assay (P19597 21-375 limits assumed): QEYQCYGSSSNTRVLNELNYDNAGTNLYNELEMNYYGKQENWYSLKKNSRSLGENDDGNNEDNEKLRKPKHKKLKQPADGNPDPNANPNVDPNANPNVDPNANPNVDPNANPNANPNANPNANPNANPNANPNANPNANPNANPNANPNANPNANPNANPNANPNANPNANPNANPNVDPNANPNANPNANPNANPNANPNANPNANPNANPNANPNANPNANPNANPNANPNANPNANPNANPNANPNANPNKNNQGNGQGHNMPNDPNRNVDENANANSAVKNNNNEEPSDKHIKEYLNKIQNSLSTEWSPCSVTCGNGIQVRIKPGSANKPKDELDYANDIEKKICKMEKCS
Experiment [2] has as its target T1, recombinant CNTNAP2 protein (human, UniProt Q9UHC6 28-1262).
T1 sequence (looked up): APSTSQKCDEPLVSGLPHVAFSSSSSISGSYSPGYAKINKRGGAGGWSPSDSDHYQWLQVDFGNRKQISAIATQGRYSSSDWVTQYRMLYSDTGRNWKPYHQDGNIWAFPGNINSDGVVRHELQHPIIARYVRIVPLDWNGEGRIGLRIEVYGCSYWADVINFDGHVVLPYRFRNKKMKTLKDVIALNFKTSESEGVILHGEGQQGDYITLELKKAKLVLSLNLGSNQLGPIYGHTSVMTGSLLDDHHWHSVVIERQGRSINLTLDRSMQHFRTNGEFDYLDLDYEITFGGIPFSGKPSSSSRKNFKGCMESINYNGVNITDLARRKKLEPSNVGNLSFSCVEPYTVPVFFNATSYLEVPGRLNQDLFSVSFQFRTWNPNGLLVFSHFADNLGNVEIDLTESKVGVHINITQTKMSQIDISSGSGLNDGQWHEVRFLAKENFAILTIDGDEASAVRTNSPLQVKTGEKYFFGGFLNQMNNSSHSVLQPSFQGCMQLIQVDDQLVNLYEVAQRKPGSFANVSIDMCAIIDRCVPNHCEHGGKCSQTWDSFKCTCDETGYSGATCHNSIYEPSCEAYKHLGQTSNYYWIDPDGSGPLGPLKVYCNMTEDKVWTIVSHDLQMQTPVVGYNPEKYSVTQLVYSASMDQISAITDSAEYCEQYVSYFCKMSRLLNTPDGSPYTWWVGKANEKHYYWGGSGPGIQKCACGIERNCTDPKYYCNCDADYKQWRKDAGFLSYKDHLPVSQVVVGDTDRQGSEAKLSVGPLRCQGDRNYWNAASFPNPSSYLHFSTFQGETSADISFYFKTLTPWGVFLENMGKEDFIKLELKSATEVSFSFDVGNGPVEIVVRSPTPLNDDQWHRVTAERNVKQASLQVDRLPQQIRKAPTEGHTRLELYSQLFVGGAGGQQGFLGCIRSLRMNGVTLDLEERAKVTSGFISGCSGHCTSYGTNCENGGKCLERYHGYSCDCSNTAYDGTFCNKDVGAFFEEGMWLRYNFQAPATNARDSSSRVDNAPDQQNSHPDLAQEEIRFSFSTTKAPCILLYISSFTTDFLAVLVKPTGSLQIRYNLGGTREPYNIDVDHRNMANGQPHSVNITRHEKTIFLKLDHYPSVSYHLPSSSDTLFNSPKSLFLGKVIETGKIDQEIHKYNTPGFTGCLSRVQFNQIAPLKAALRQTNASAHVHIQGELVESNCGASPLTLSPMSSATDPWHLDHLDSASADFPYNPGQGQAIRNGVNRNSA
As to the kind of experiment: SPR with recombinant protein.

Experiment [3] deals with T2, human FcγRI (human, UniProt P12314 16-288).
T2 construct: also called hFcγRI; CD64
As to the kind of experiment: SPR, human FcγR. On the technique in general: SPR reads the build-up and loss of mass on a sensor chip optically.
Text: (§1) A human IgG1 antibody in both WT and Fc silenced (LAGA) formats were included as negative control.

Experiment [4] deals with T3, human FcγRIIa (H131) (human, UniProt P12318 36-218).
T3 construct: also called hFcγRIIaH
T3 sequence (looked up): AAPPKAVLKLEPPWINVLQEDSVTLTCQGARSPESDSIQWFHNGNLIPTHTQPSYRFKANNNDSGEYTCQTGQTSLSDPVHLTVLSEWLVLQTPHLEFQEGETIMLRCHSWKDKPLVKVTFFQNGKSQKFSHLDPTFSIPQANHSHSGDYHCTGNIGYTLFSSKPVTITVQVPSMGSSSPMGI
The experiment in a line: SPR, human FcγR.
Text: as §1

For experiment [5], the target named is T4, human FcγRIIa (R131) (human, UniProt P12318 36-218).
T4 construct: also called hFcγRIIaR
T4 sequence (looked up): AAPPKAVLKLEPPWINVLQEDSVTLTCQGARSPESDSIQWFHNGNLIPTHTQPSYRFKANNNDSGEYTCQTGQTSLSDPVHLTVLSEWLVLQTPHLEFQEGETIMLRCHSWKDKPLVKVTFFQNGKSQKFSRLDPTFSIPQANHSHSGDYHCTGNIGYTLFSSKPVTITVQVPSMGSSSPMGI
The experiment in a line: SPR, human FcγR.
Text: as §1

Experiment [6] concerns the target T5, human FcγRIIb (human, UniProt P31994 43-217).
T5 construct: also called hFcγRIIb
T5 sequence (looked up): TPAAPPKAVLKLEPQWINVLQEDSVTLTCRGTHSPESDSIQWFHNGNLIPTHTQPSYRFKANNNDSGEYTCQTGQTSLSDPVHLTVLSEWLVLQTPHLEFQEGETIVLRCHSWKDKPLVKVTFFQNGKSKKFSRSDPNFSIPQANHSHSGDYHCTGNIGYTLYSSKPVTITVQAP
As to the kind of experiment: SPR, human FcγR.
Text: as §1

The target in experiment [7] is T6, human FcγRIIIa (V158) (human, UniProt P08637 17-208).
T6 construct: also called hFcγRIIIaV
The experiment in a line: SPR, human FcγR.
Text: as §1

In experiment [8] the target is T7, human FcγRIIIa (F158) (human, UniProt P08637 17-208).
T7 construct: also called hFcγRIIIaF
As to the kind of experiment: SPR, human FcγR.
Text: as §1

The target of experiment [9] is T8, recombinant Plasmodium falciparum circumsporozoite protein (CSP) (Plasmodium falciparum, UniProt P19597 21-375). As to the kind of experiment: cell-based or functional assay. This is another data set of the same source.
T8 sequence (P19597 21-375 limits assumed): as the sequence (P19597 21-375 limits assumed) above
Experiment [10] concerns the target T8, recombinant Plasmodium falciparum …. The experiment in a line: cell-based or functional assay. The source holds these as a separate data set.
For experiment [11] the target is unchanged. As to the kind of experiment: cell-based or functional assay. This is another data set of the same source.
Target sequence in this assay (P19597 21-375 limits assumed): as the sequence (P19597 21-375 limits assumed) above
Experiment [12] addresses T9, human FcRn (human, UniProt P55899 24-297; P61769 21-119).
T9 construct: also called neonatal Fc receptor
As to the kind of experiment: SPR, human FcRn, pH 6.0.

In experiment [13] the target is T8, recombinant Plasmodium falciparum …. As to the kind of experiment: SPR, recombinant CSP; n=1.
Experiment [14] shares this target. As to the kind of experiment: SPR, recombinant CSP; geometric mean, n=3.
Target sequence in this assay (P19597 21-375 limits assumed): as the sequence (P19597 21-375 limits assumed) above
The target of experiment [15] is T10, recombinant SPOCK1 protein (human, UniProt Q08629 22-439).
T10 sequence (looked up): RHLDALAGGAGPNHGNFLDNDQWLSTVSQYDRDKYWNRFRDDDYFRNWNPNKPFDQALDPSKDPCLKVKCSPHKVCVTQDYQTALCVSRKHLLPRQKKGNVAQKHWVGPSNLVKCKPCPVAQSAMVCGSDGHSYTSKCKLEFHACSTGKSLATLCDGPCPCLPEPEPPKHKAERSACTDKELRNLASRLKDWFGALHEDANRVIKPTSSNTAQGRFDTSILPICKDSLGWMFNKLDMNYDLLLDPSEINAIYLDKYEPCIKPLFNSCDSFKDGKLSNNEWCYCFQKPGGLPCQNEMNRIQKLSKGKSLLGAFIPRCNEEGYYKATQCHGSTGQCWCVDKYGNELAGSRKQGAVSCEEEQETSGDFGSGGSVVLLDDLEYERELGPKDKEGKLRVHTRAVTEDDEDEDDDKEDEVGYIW
The experiment in a line: SPR with recombinant protein.

Values joined by “and” are separate entries in the source; they are usually repeats but may differ in a detail not shown here. Equal values may be shown once. Bounds are passed on as bounds.

In general, Kd refers to the concentration at which binding is half-saturated.

T7 sequence (P08637 17-208 limits assumed): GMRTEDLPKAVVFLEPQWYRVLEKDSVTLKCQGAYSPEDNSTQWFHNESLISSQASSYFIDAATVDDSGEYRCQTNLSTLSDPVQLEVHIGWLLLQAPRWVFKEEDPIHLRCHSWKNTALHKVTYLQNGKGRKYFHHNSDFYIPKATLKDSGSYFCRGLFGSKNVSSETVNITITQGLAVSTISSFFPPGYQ
T6 sequence (P08637 17-208 F176V limits assumed): as the sequence (P08637 17-208 limits assumed) above, with F160V counted along it
T2 sequence (P12314 16-288 limits assumed): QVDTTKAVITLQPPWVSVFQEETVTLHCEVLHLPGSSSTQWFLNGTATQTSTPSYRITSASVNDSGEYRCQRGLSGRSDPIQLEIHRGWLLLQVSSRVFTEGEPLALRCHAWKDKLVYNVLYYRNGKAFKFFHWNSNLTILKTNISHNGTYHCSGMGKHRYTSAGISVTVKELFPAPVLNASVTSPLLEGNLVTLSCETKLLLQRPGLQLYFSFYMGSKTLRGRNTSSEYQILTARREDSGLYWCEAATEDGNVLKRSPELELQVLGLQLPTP
T9 sequence (P55899 24-297 limits assumed, form in doubt, chain 1 of 2): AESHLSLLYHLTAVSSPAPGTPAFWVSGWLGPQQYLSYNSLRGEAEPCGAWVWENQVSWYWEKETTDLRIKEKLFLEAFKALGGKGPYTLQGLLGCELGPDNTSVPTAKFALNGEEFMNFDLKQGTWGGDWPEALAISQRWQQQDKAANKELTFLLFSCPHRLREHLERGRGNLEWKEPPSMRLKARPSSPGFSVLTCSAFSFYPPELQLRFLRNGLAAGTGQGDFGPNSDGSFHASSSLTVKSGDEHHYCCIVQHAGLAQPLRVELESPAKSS
T9 sequence (P61769 21-119 limits assumed, form in doubt, chain 2 of 2): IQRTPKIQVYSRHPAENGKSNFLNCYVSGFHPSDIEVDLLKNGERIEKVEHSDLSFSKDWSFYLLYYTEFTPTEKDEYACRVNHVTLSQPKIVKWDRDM

B1: 356-ALE-LS (antibody, human IgG1, kappa)
heavy: QVQLVESGGGVVQPGRSLRLSCAASGFTFRNFGMHWVRQTPGKGLEWVAVIWHDGSNKFYADSVEGRFTISRDNSKNMIYLQMNSLRVEDTAIYYCARDSLFYDHDNSGYYGYWGQGTLVTVSSASTKGPSVFPLAPSSKSTSGGTAALGCLVKDYFPEPVTVSWNSGALTSGVHTFPAVLQSSGLYSLSSVVTVPSSSLGTQTYICNVNHKPSNTKVDKKVEPKSCDKTHTCPPCPAPELLAGPSVFLFPPKPKDTLMISRTPEVTCVVVDVSHEDPEVKFNWYVDGVEVHNAKTKPREEQYNSTYRVVSVLTVLHQDWLNGKEYKCKVSNKALPLPEEKTISKAKGQPREPQVYTLPPSRDELTKNQVSLTCLVKGFYPSDIAVEWESNGQPENNYKTTPPVLDSDGSFFLYSKLTVDKSRWQQGNVFSCSVLHEALHSHYTQKSLSLSPGK
light: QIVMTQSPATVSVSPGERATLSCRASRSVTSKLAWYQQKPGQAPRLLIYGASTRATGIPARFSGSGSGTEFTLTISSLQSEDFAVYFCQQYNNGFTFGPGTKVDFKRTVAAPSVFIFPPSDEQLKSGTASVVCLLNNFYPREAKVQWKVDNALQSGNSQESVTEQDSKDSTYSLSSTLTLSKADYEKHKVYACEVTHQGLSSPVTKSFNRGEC
Regarding B1, in experiment [1], the “EC50 in ADCP assay” value is less than 0.001 nM. Moreover, the binding result in experiment [2] is on record as “no binding (tested: 300 nM)”.

B2: AB-000356 ALE LS (antibody, human IgG1, kappa)
heavy: QVQLVESGGGVVQPGRSLRLSCAASGFTFRNFGMHWVRQTPGKGLEWVAVIWHDGSNKFYADSVEGRFTISRDNSKNMIYLQMNSLRVEDTAIYYCARDSLFYDHDNSGYYGYWGQGTLVTVSSASTKGPSVFPLAPSSKSTSGGTAALGCLVKDYFPEPVTVSWNSGALTSGVHTFPAVLQSSGLYSLSSVVTVPSSSLGTQTYICNVNHKPSNTKVDKKVEPKSCDKTHTCPPCPAPELLAGPSVFLFPPKPKDTLMISRTPEVTCVVVDVSHEDPEVKFNWYVDGVEVHNAKTKPREEQYNSTYRVVSVLTVLHQDWLNGKEYKCKVSNKALPLPEEKTISKAKGQPREPQVYTLPPSRDELTKNQVSLTCLVKGFYPSDIAVEWESNGQPENNYKTTPPVLDSDGSFFLYSKLTVDKSRWQQGNVFSCSVLHEALHSHYTQKSLSLSPGK
light: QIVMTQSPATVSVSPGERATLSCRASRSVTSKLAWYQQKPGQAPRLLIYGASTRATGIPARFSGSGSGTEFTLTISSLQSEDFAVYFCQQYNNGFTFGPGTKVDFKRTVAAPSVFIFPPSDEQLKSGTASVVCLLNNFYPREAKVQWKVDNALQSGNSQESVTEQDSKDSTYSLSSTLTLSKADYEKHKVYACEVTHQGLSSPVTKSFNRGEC
For the molecule B2, the Kd in [3] is 56 nM and 157 nM; in experiment [4] it was 218 nM and 268 nM; in [5], 675 nM and 766 nM; in experiment [6], 3890 nM; in experiment [7] it was 73 nM and 144 nM; in experiment [8] it was 89 nM and 246 nM. Further, the Kd in experiment [12] was determined as 52 nM; in experiment [13], 1.58 nM; in [14] it was 1.1 nM. For the same molecule, the “GeoMean EC50 (M), ADCP” value in experiment [9] turned out to be 5.03e-13 M. The “Mean EC50 (pM), ADCP” value in experiment [9] came out at 0.5 pM. The “Mean pEC50, ADCP” value in [9] came out at 12.3. For the same molecule, the “GeoMean EC50 (M), ADCP repeat, n=4” value in [10] amounted to 6.45e-13 M. Besides, the “Mean EC50 (pM), ADCP repeat, n=4” value in experiment [10] stood at 0.6 pM. Besides, the “Mean pEC50, ADCP repeat, n=4” value in experiment [10] was determined as 12.2. Also, the “Geo Mean EC50 (ug/ml), ADNKA, Donor 1” value in [11] was found to be 0.0052 µg/mL. Further, the “Geo Mean EC50 (ug/ml), ADNKA, Donor 2” value in experiment [11] was found to be 0.0035 µg/mL. The “Geo Mean EC50 (ug/ml), ADNKA, Donor 3” value in [11] was determined as 0.189 µg/mL. Also, the “Geo Mean EC50 (ug/ml), ADNKA, Donor 4” value in experiment [11] is 0.0104 µg/mL.

B3: 356-DEA-FV-LS (antibody, human IgG1, kappa)
heavy: QVQLVESGGGVVQPGRSLRLSCAASGFTFRNFGMHWVRQTPGKGLEWVAVIWHDGSNKFYADSVEGRFTISRDNSKNMIYLQMNSLRVEDTAIYYCARDSLFYDHDNSGYYGYWGQGTLVTVSSASTKGPSVFPLAPSSKSTSGGTAALGCLVKDYFPEPVTVSWNSGALTSGVHTFPAVLQSSGLYSLSSVVTVPSSSLGTQTYICNVNHKPSNTKVDKKVEPKSCDKTHTCPPCPAPELLAGPDVFLFPPKPKDVLMISRTPEVTCVVVDVSHEDPEVKFNWYVDGVEVHNFKTKPREEQYNSTYRVVSVLTVLHQDWLNGKEYKCKVSNKALPAPEEKTISKAKGQPREPQVYTLPPSRDELTKNQVSLTCLVKGFYPSDIAVEWESNGQPENNYKTTPPVLDSDGSFFLYSKLTVDKSRWQQGNVFSCSVLHEALHSHYTQKSLSLSPGK
light: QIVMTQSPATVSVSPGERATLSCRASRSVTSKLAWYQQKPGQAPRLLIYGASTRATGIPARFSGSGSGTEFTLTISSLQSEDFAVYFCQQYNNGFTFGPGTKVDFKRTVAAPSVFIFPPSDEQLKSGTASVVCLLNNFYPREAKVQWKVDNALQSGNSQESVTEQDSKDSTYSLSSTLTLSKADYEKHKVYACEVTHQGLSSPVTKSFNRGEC
As to B3, the “EC50 in ADCP assay” value in experiment [1] was less than 0.001 nM. In addition, in experiment [2], the binding result is reported as “no binding (tested: 300 nM)”.

B4: 338-ALE-LS (antibody, human IgG1, kappa, V domains shown)
VH: QVQLVESGGGVVQPGRSLRLSCAASGFSFSTYGMHWIRQVPGKGLEWVAIIWHDGSKEFYADSVKGRFTISRDNSKKKLYLQMNSLRAEDTAIYYCVKDDFDSSGHSYFHYWGQGTLVTVSS
VL: GVVMTQSPLSLPVTLGQPASISCRSSQSLVHSDGNTYVHWFQQRPGQSPRRLIYKVSNRDSGVPDRFSGSGSGTDFTLKISRVEAEDVGVYYCMQGTQWWTFGQGTKVEIKR
For B4, the binding result in [15] is listed as “no binding (tested: 300 nM)”.
